Assay results published in the supplement of paper PMC9112550, “Optimization of the antimicrobial peptide Bac7 by deep mutational scanning” (BMC Biology, 2022).

The sequences below were run on Escherichia coli TOP10 (assay: shrunken log2 fold change of peptide-encoding DNA abundance (4.5 h post-induction vs induction); higher = less antimicrobial activity (less host growth inhibition)). Conditions: time post-induction: 4.5 h; library: site-saturation at positions 5, 18, 19, 20.
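Further: peptides expressed intracellularly from a pBAD plasmid library in pooled LB shake-flask culture, induced with 0.3% L-arabinose, DNA abundance read by NGS, three biological replicates, DESeq2 with apeglm shrinkage.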

Sequence	shrunken log2 fold change
RRIRDRPPRLPRPRPRPWCCPRP	0.0175
RRIRHRPPRLPRPRPRPFARPRP	-0.107
RRIRSRPPRLPRPRPRPQIKPRP	0.0447
RRIRTRPPRLPRPRPRPDVTPRP	-0.06
RRIRGRPPRLPRPRPRPALDPRP	1.4
RRIRIRPPRLPRPRPRPPYSPRP	0.0677
RRIRRRPPRLPRPRPRPNIMPRP	-0.359
RRIRLRPPRLPRPRPRPGGWPRP	0.71
RRIRFRPPRLPRPRPRPSQIPRP	-0.253
RRIRWRPPRLPRPRPRPHCWPRP	0.202
RRIRYRPPRLPRPRPRPSMQPRP	-0.288
RRIRDRPPRLPRPRPRPFQLPRP	-0.0537
RRIRCRPPRLPRPRPRPYDEPRP	-0.144
RRIRHRPPRLPRPRPRPLYNPRP	-0.459
RRIRERPPRLPRPRPRPKKDPRP	-0.346
RRIRFRPPRLPRPRPRPHWYPRP	-0.343
RRIRPRPPRLPRPRPRPCRIPRP	-0.00277
RRIRVRPPRLPRPRPRPMCMPRP	0.0119
RRIRGRPPRLPRPRPRPTMTPRP	2.08
RRIRLRPPRLPRPRPRPHSMPRP	-0.506
RRIRWRPPRLPRPRPRPCYGPRP	0.22
RRIRQRPPRLPRPRPRPCFAPRP	0.0874
RRIRKRPPRLPRPRPRPQPGPRP	0.406
RRIRHRPPRLPRPRPRPHCKPRP	-0.0178
RRIRGRPPRLPRPRPRPHPKPRP	0.865

Sequence	shrunken log2 fold change
RRIRGRPPRLPRPRPRPIGWPRP	1.18
RRIRGRPPRLPRPRPRPLVNPRP	0.4
RRIRTRPPRLPRPRPRPPIGPRP	0.0445
RRIRPRPPRLPRPRPRPGHLPRP	0.234
RRIRSRPPRLPRPRPRPRPPPRP	1.13
RRIRHRPPRLPRPRPRPHYWPRP	-0.588
RRIRFRPPRLPRPRPRPFMTPRP	-0.333
RRIRERPPRLPRPRPRPTTNPRP	-0.185
RRIRQRPPRLPRPRPRPDTQPRP	-0.401
RRIRTRPPRLPRPRPRPELCPRP	-0.101
RRIRCRPPRLPRPRPRPVAQPRP	0.159
RRIRTRPPRLPRPRPRPTDQPRP	-0.143
RRIRERPPRLPRPRPRPTHTPRP	-0.409
RRIRTRPPRLPRPRPRPWHKPRP	-0.168
RRIRMRPPRLPRPRPRPPWYPRP	0.117
RRIRCRPPRLPRPRPRPMNAPRP	-0.422
RRIRGRPPRLPRPRPRPRWHPRP	0.522
RRIRERPPRLPRPRPRPWPQPRP	-0.0216
RRIRMRPPRLPRPRPRPTSPPRP	0.278
RRIRFRPPRLPRPRPRPNQRPRP	0.269
RRIRARPPRLPRPRPRPTILPRP	0.344
RRIRERPPRLPRPRPRPISIPRP	-0.258
RRIRARPPRLPRPRPRPWPYPRP	-0.144
RRIRERPPRLPRPRPRPIIQPRP	-0.386
RRIRWRPPRLPRPRPRPITMPRP	-0.0679

Sequence	shrunken log2 fold change
RRIRDRPPRLPRPRPRPIVDPRP	-0.000946
RRIRPRPPRLPRPRPRPPYSPRP	-0.181
RRIRQRPPRLPRPRPRPIYTPRP	0.036
RRIRCRPPRLPRPRPRPHVRPRP	-0.4
RRIRSRPPRLPRPRPRPIEMPRP	-0.0731
RRIRNRPPRLPRPRPRPHIIPRP	0.0166
RRIRDRPPRLPRPRPRPEWAPRP	0.746
RRIRYRPPRLPRPRPRPRQNPRP	0.345
RRIRGRPPRLPRPRPRPEQLPRP	0.443
RRIRPRPPRLPRPRPRPMSVPRP	0.0754
RRIRQRPPRLPRPRPRPIMNPRP	-1.23
RRIRLRPPRLPRPRPRPIWCPRP	-0.0514
RRIRHRPPRLPRPRPRPRVTPRP	0.0786
RRIRVRPPRLPRPRPRPDTSPRP	-0.124
RRIRPRPPRLPRPRPRPIWPPRP	0.302
RRIRHRPPRLPRPRPRPLSRPRP	0.172
RRIRTRPPRLPRPRPRPTEVPRP	-0.199
RRIRLRPPRLPRPRPRPNERPRP	-0.0191
RRIRVRPPRLPRPRPRPMCDPRP	-0.0462
RRIRRRPPRLPRPRPRPKMYPRP	-0.258
RRIRQRPPRLPRPRPRPYKGPRP	-0.0872
RRIRRRPPRLPRPRPRPVHAPRP	0.67
RRIRERPPRLPRPRPRPCWEPRP	-0.0225
RRIRTRPPRLPRPRPRPHCAPRP	-0.0401
RRIRIRPPRLPRPRPRPPLMPRP	-0.16
